Where “and” joins values, the source holds several entries; their conditions need not be identical. Equal entries are not always repeated.
Tests used:
[1] = biological target: HML2 CA^rec C-terminal domain (CA^rec-CTD, P156-Q246) (human endogenous retrovirus HML2 (HERV-K), consensus); assay: solution NMR structure (inter-molecular filtered NOEs); 298 K, 20 mM Tris-HCl, 50 mM NaCl, 0.5 mM TCEP, pH 7.0; asymmetrically labelled dimer from equimolar unlabelled and 13C/15N-labelled CA^rec-CTD, 2 mM total protein
[2] = biological target: HML2 CA^rec C-terminal domain (CA^rec-CTD, P156-Q246) (human endogenous retrovirus HML2 (HERV-K), consensus); assay: AUC; sedimentation equilibrium, 20 mM Tris-HCl pH 8, 150 mM NaCl, 0.5 mM TCEP; 50-200 µM protein, three speeds; global fit to a monomer-dimer equilibrium (monomer to dimer); MSTAR analysis at 200 µM
[3] = biological target: HML2 CA^rec (consensus HML2 capsid protein, P1-Q246) (human endogenous retrovirus HML2 (HERV-K), consensus); assay: cryo-EM structure; single-particle reconstruction of particles assembled in vitro at 1.4 M NaCl, 10 mg/mL, 4 °C, 1 h; T = 1, D5, D6 and T = 3 shells

| Substance | stoichiometry N [1] | Ka [2] | stoichiometry N [3] |
| --- | --- | --- | --- |
| HML2 CA^rec C-terminal domain (CA^rec-CTD, P156-Q246) (domain or fragment) | 2 | 3600 M⁻¹ | – |
| HML2 CA^rec (consensus HML2 capsid protein, P1-Q246) (natural protein) | – | – | 5 and 6 |

From article PMC6925226
